One molecule from PMC4996945, “Crosstalk between MSH2–MSH3 and polβ promotes trinucleotide repeat expansion during base excision repair” can be followed below.

The data set concerns the target MSH2;MSH3 (Homo sapiens;Homo sapiens, UniProt P43246;P20585 1-934;1-1137, |). As to the kind of experiment: gel filtration; 1:1:1 OGG1, MSH2-MSH3, DNA; MSH2-MSH3-DNA peak; 10 mM HEPES pH 8.1, 110 mM NaCl, 1 mM DTT, 0.1 mg/ml BSA, 10% glycerol, 0.25% inositol, 5 mM Mg2+, 2 mM ATP, 2 mM ADP; on ice (EMSA 10 min, gel at 4 °C; footprint binding 15 min, DNase I at 37 °C); 25 nM DNA. Particulars: protein: recombinant;recombinant; tags: ;His; copies: 1;1.

B1: CAG-duplex (80) with one 8-oxo-G (dsDNA)
DNA 1: CAAGCACGTTGACTACCGTCCAGCAGCAGCAGCAGCAGCAGCAGCAGCAGCAGCAGCAGTTTGAGGCAGAGTCCGAACAC
DNA 2: GTGTTCGGACTCTGCCTCAAACTGCTGCTGCTGCTGCTGCTGCTGCTGCTGCTGCTGCTGGACGGTAGTCAACGTGCTTG
modifications: one 8-oxo-G (stated position 17, exact G not marked in text); complement not given
With B1, the binding result is “binds”.
